From US20180044434A1 (PUBLIC UNIVERSITY CORPORATION YOKOHAMA CITY UNIVERSITY, published 2018)
Numbering of substitutions follows the chain as printed. Values belong to the binder of their own block, whether it stands above or below them.

Tests used:
[1] = biological target: T1, Ala mutant having 3-amino acid substitution, SEQ ID NO: 46; assay: ELISA, coated peptide
T1 peptide: EENMDDAAAQDEMEIGY

[2] = biological target: T2, Ala mutant having 3-amino acid substitution, SEQ ID NO: 45; assay: ELISA, 3-amino acid Ala mutants
T2 peptide: EENAAAQWMQDEMEIGY
Experimental: (§1) The epitope of each of A11 etc. was identified by alanine scan. Specifically, the following procedures (i) to (iii) were carried out. (i) Each amino acid residue of the antigen sequence (SEQ ID NO: 1) was replaced by another amino acid one by one, and 17 different Ala mutants (SEQ ID Nos: 27 to 43) were synthesized. (ii) The reactivity of each of the Ala mutants toward a test antibody was evaluated (ELISA).
(§2) Note that, as additional experiments, 6 different Ala mutants having 3-amino acid substitution (SEQ ID NOs: 44 to 49) were likewise examined in the experiments.

[3] = biological target: T1, Ala mutant having 3-amino acid …; assay: ELISA, 3-amino acid Ala mutants
Experimental: as §1, §2

[4] = biological target: T3, Ala mutant of TA0096, SEQ ID NO: 34; assay: ELISA, alanine scan (position 347)
T3 peptide: EENMDDQAMQDEMEIGY
Experimental: as §1
(§3) The “96 pAb” designated in the table refers to antiserum as obtained by immunizing a chicken with TA0096 (SEQ ID NO: 1). The 96 pAb, which is an anti-PAD4 polyclonal antibody, can substantially keep the affinity toward PAD4 even if any of single amino acids of PAD4 is replaced.

[5] = biological target: T4, Ala mutant of TA0096, SEQ ID NO: 35; assay: ELISA, alanine scan (position 348)
T4 peptide: EENMDDQWAQDEMEIGY
Experimental: as §1, §3

[6] = biological target: T5, full-length recombinant human PAD4 (human, UniProt Q9UM07 1-663); assay: ELISA, coated human PAD4; antibody 1 ug/mL
T5 construct: Full-length recombinant; also called peptidylarginine deiminase 4

[7] = biological target: T5, full-length recombinant human PAD4; assay: ELISA, coated human PAD4; antibody 0.25 ug/mL
[8] = biological target: T6, full-length recombinant mouse PAD4 (mouse, UniProt Q9Z183 1-666); assay: ELISA, coated mouse PAD4; antibody 0.0625 ug/mL
T6 construct: mature; Full-length recombinant

[9] = biological target: T5, full-length recombinant human PAD4; assay: ELISA, coated human PAD4; antibody 0.015625 ug/mL
[10] = biological target: T5, full-length recombinant human PAD4; assay: ELISA, coated human PAD4; antibody 0.0002441 ug/mL
[11] = biological target: T5, full-length recombinant human PAD4; assay: ELISA, coated human PAD4; antibody 0.0009766 ug/mL
[12] = biological target: T5, full-length recombinant human PAD4; assay: ELISA, coated human PAD4; antibody 6.104E-05 ug/mL
[13] = biological target: T6, full-length recombinant mouse PAD4; assay: ELISA, coated mouse PAD4; antibody 0.0009766 ug/mL
[14] = biological target: T6, full-length recombinant mouse PAD4; assay: ELISA, coated mouse PAD4; antibody 0.0039063 ug/mL
[15] = biological target: T7, Ala mutant of TA0096, SEQ ID NO: 32; assay: ELISA, coated peptide
T7 peptide: EENMDAQWMQDEMEIGY

[16] = biological target: T7, Ala mutant of TA0096, SEQ ID NO: 32; assay: ELISA, alanine scan (position 345)
Experimental: as §1, §3

T5 sequence (Q9UM07 whole entry): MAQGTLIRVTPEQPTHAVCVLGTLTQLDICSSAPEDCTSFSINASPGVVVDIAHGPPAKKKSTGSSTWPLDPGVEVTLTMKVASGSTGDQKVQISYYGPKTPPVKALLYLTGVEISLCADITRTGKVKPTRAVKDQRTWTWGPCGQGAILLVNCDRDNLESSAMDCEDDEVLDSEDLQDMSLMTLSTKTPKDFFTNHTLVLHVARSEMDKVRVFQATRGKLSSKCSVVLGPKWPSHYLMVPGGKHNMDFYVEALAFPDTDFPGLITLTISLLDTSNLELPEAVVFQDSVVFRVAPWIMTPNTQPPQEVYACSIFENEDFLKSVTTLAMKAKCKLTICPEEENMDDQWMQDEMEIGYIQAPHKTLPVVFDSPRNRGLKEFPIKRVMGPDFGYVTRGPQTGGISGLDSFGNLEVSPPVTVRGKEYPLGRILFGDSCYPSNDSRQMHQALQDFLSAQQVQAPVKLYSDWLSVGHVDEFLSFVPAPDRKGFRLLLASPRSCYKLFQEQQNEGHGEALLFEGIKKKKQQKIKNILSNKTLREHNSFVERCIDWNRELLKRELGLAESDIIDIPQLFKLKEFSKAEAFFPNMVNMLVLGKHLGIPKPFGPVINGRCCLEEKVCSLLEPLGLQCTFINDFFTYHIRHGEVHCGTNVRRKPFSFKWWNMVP
T6 sequence (Q9Z183 whole entry): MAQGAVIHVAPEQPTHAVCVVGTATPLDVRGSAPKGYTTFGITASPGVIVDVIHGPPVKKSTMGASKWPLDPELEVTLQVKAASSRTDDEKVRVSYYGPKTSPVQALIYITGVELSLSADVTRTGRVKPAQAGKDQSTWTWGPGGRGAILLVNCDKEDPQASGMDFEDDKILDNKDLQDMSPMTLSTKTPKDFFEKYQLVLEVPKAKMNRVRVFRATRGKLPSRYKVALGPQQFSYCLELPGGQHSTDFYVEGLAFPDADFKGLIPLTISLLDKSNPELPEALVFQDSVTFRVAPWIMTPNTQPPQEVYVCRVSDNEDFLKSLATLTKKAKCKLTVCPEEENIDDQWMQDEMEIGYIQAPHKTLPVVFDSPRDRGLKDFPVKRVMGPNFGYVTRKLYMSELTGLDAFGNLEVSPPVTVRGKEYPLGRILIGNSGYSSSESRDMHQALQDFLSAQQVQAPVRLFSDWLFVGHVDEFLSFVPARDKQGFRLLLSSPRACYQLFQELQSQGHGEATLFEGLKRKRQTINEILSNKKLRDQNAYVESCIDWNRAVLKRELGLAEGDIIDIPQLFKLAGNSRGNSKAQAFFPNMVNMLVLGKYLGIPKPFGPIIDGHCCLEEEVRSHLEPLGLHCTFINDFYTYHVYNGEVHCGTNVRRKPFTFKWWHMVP

OD 490/630 nm [1]: 0.043 | binding result [2]: no binding | binding result [3]: no binding | binding result [4]: no binding | binding result [5]: no binding | OD 490/630 nm [6]: 2.15 | OD 490/630 nm [7]: 2.11 | OD 490/630 nm [8]: 2.24 | OD 490/630 nm [9]: 2.08 | OD 490/630 nm [10]: 0.206 | OD 490/630 nm [11]: 0.511 | OD 490/630 nm [12]: 0.063 | OD 490/630 nm [13]: 0.386 | OD 490/630 nm [14]: 1.07
B1: A11 (antibody, V domains shown)
VH: AVTLDESGGGLQTPGGALSLVCKASGFDFSSYGMGWMRQAPGKGLEYVAAIRNDGSWTGYGAAVKGHATISRDNGQSTVRLQLNNLRAEDTGTYYCAKTTGSRGGSIDAWGHGTEVIVS
VL: ASTQPSSVSANLGGTVEITCSGGGRYYYGWYQQKSPGSAPVTVIYANDKRPSDIPSRFSGSKSGSTGTLTITGVQAEDEAVYFCGSAETSSYVFGAGTTLTVL
notes: Chicken variable regions in a mouse chimeric antibody (IgG1); also called anti-PAD4 antibody A11

OD 490/630 nm [15]: 0.083 | binding result [2]: no binding | binding result [16]: no binding | binding result [4]: no binding | OD 490/630 nm [6]: 2.12 | OD 490/630 nm [7]: 2.1 | OD 490/630 nm [8]: 2.22 | OD 490/630 nm [9]: 2.08 | OD 490/630 nm [10]: 0.184 | OD 490/630 nm [11]: 0.544 | OD 490/630 nm [12]: 0.1 | OD 490/630 nm [13]: 0.555 | OD 490/630 nm [14]: 1.42
B2: G8 (antibody, V domains shown)
VH: B1 VH with D28T, S31T, G33A, H67R, S71L, N84S, T99Y, R103S, D108G
VL: ASTQPSSVSANLGGTVEITCSGGNRNYYYGWYQQKSPGSAPVTLIYANDKRPSNIPSRFSGSKSGSTGTLTITGVQAEDEAVYFCGTADTGKYVFGAGTTLTVL
notes: Chicken variable regions in a mouse chimeric antibody (IgG1); also called anti-PAD4 antibody G8

OD 490/630 nm [15]: 0.033 | OD 490/630 nm [1]: 0.044 | binding result [2]: no binding | binding result [3]: no binding | binding result [16]: no binding | binding result [4]: no binding | binding result [5]: no binding | OD 490/630 nm [6]: 2.11 | OD 490/630 nm [7]: 2.11 | OD 490/630 nm [8]: 2.29 | OD 490/630 nm [9]: 2.07 | OD 490/630 nm [10]: 0.217 | OD 490/630 nm [11]: 0.537 | OD 490/630 nm [12]: 0.111 | OD 490/630 nm [13]: 0.55 | OD 490/630 nm [14]: 1.41
B3: H7 (antibody, V domains shown)
VH: B1 VH with D28T, S31T, G33A, H67R, S71L, N84S, T99Y, R103S, D108G
VL: ASTQPSSVSANPGGTVEITCSGGSGRYYYGWYQQKSPGSAPVTVIYSSTHRPSNIPSRFSGSKSGSTATLTITGVQAEDEAVYFCGTADSSSYVFGAGTTLTVL
notes: Chicken variable regions in a mouse chimeric antibody (IgG1); also called anti-PAD4 antibody H7

OD 490/630 nm [15]: 0.035 | OD 490/630 nm [1]: 0.083 | binding result [2]: no binding | binding result [3]: no binding | binding result [16]: no binding | binding result [4]: no binding | binding result [5]: no binding | OD 490/630 nm [6]: 2.11 | OD 490/630 nm [7]: 2.07 | OD 490/630 nm [8]: 2.16 | OD 490/630 nm [9]: 2.01 | OD 490/630 nm [10]: 0.166 | OD 490/630 nm [11]: 0.437 | OD 490/630 nm [12]: 0.075 | OD 490/630 nm [13]: 0.2 | OD 490/630 nm [14]: 0.55
B4: G6 (antibody, V domains shown)
VH: B1 VH with D28T, G35E, M37V, H67R, N74D, V79L, G92A, R103S
VL: B1 VL with G14E, E17K, R25N, V43L, D53N, S86T, E88D, S90G, S91K
notes: Chicken variable regions in a mouse chimeric antibody (IgG1); also called anti-PAD4 antibody G6

OD 490/630 nm [15]: 0.039 | OD 490/630 nm [1]: 0.131 | binding result [2]: no binding | binding result [3]: no binding | binding result [16]: no binding | binding result [4]: no binding | OD 490/630 nm [6]: 2.1 | OD 490/630 nm [7]: 2.08 | OD 490/630 nm [8]: 2.24 | OD 490/630 nm [9]: 2.07 | OD 490/630 nm [10]: 0.187 | OD 490/630 nm [11]: 0.534 | OD 490/630 nm [12]: 0.082 | OD 490/630 nm [13]: 0.542 | OD 490/630 nm [14]: 1.39
B5: G9 (antibody, V domains shown)
VH: B1 VH with D28T, S31T, G33A, H67R, S71L, N84S, T99Y, R103S, D108G
VL: B1 VL with S2V, S6A
notes: Chicken variable regions in a mouse chimeric antibody (IgG1); also called anti-PAD4 antibody G9

OD 490/630 nm [1]: 0.027 | binding result [2]: no binding | binding result [3]: no binding | binding result [4]: no binding | binding result [5]: no binding | OD 490/630 nm [6]: 2.11 | OD 490/630 nm [7]: 2.08 | OD 490/630 nm [8]: 2.19 | OD 490/630 nm [9]: 2.08 | OD 490/630 nm [10]: 0.176 | OD 490/630 nm [11]: 0.489 | OD 490/630 nm [12]: 0.07 | OD 490/630 nm [13]: 0.416 | OD 490/630 nm [14]: 0.956
B6: E9 (antibody, V domains shown)
VH: B1 VH with A17T, A24G, D28T, A62S, H67R, G92A, T100S, R103S, I107V
VL: B1 VL
notes: Chicken variable regions in a mouse chimeric antibody (IgG1); also called anti-PAD4 antibody E9
